The values that follow are results of earlier work, collected in paper PMC2715106.

pKd: −log10 of the molar value.

The target in data set [1] is core RNA polymerase (Escherichia coli) (UniProt P0A7Z4). Kind of data set: in vitro transcription.
The target is the same in data set [2]. Nature of the data set: SEC. A general note: Size exclusion chromatography separates by hydrodynamic size, large species first.

Sequence of sigma32 (P0AGB3 whole entry): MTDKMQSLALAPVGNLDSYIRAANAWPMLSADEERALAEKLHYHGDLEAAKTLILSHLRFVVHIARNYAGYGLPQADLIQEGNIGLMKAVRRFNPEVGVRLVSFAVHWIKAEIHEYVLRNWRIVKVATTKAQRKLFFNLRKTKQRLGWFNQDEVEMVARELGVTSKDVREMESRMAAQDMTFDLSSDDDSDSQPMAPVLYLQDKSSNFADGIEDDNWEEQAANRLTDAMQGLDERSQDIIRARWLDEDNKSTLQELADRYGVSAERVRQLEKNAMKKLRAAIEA

As a reminder, the pKd is the Kd on a negative log10 scale, so that one unit is a factor of ten. In the case of sigma32 (from UniProt P0AGB3), the pKd is 9.00 in data set [1] and 8.91 in data set [2].
